Data on one molecule can be found in US20140142040A1.

Read-outs that look alike come from different tables or passages of the source.

Test [1] concerns the target T1, human activated protein C (human), P04070.
T1 chain 1: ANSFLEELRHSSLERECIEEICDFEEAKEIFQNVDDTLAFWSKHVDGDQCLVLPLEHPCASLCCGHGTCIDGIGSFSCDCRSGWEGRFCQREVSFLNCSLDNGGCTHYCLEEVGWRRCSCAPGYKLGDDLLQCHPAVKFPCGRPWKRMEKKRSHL
T1 chain 2: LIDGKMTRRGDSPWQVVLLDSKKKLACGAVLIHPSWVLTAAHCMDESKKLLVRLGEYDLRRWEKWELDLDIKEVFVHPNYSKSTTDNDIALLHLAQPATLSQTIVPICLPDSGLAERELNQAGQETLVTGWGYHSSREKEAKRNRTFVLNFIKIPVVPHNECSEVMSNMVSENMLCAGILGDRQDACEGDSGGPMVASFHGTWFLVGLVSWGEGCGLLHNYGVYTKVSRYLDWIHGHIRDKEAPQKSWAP

Test [2] has as its target T1, human activated protein C (human), …. Description: cell-based or functional assay.
Test [3] deals with human factor XIa (human), P03951.
The target in test [4] is T2, human plasmin (human), P00747.
T2 chain: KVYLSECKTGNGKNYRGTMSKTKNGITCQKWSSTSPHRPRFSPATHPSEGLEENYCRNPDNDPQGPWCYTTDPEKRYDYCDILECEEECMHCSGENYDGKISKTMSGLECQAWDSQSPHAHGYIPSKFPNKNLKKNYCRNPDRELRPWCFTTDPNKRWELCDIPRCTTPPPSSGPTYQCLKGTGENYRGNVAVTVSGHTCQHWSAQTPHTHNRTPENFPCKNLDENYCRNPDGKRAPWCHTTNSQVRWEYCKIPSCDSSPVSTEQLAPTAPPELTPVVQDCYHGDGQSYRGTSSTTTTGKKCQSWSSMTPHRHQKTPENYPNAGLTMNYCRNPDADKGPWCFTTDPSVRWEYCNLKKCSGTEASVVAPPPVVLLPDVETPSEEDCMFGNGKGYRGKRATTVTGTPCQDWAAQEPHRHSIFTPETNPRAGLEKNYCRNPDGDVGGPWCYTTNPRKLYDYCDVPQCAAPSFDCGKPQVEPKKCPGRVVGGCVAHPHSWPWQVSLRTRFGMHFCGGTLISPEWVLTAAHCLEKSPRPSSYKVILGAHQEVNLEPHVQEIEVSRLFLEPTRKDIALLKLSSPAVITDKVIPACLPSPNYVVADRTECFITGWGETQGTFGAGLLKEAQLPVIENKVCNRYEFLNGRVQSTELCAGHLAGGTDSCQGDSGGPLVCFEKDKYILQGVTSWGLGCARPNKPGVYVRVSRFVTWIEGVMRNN

Test [5] deals with T1, human activated protein C (human), ….
Test [6] has the same target.

B1: DrKIn-I (Daboia russelii Kunitz Inhibitor-I), A8Y7N4 25-90 (protein)
chain: QDRPKFCNLAPESGRCRGHLRRIYYNPDSNKCEVFFYGGCGGNDNNFETRKKCRQTCGAPRKGRPT
modifications: not checked
A word on the Kd: it is the equilibrium constant for the complex coming apart. Higher therefore signals lower affinity. The term koff denotes the rate constant with which the complex falls apart. In general, kon refers to the second-order rate constant of association. Lower therefore signals slow association. What is called Ki is a measure of affinity in units of concentration, obtained from inhibition or displacement. In test [1], B1 showed an equilibrium dissociation constant (Kd) of 2.6 nM, a koff of 0.034 s⁻¹ and an on-rate constant (kon) of 1.3e+07 M⁻¹ s⁻¹. In test [2], this molecule returned a fold reduction of the IC50 by heparin of 25 fold. Moreover, in test [3], the inhibition constant (Ki) was 1.33 nM and the fold of Ki against the Ki for APC inhibition was over 25 fold. Also, in test [4], the Ki worked out at 1.56 nM and the fold of Ki against the Ki for APC inhibition was over 25 fold. In test [5], this molecule had a Ki of 0.053 nM. The molecule also returned an on-rate (kon) in test [6] of 1.7e+07 M⁻¹ s⁻¹.
